According to patent publication EP4785962A1, “ANTIBODY-DRUG CONJUGATE TARGETING TROP2, AND PREPARATION METHOD AND USE THEREFOR” (priority 2023, dated 2025):

Tested on: Human gastric cancer cell line NCI-N87
Test: Mouse xenograft tumor model NCI-N87
Assay type: in vivo, immunodeficient mice CB17-SCID
Conditions: intraperitoneal injection
Protocol: • 1. Mice: immunodeficient mice CB17-SCID (Vital River) aged 6-8 weeks were placed in an SPF experimental environment for 3-5 days before the experiment to better adapt to the current living environment. In all experiments, the long and short diameters of the tumor were measured twice a week using a vernier caliper, and the tumor volume (mm^3) was calculated from the measured data. The calculation formula is as follows: Tumor volume(mm^3) = 0.5 × long diameter(mm) × short diameter(mm) × short diameter(mm) [formula] • 2. Human gastric cancer cell line NCI-N87 (ATCC) cells were resuspended in 1× PBS (Gibco, 10010049) at an appropriate concentration, and the tumor cells were implanted subcutaneously in the right abdomen of the mice at an inoculation amount of 2×10^6 /mouse. When the tumor volume reached 150-200 mm^3, the mice were divided into groups such that the average initial administration volume of each group was substantially the same. After grouping, different doses of antibody-drug conjugates hRs7-DXd, hRS7-MB3 and hTINA1-DXd, or control-drug conjugates IgG-MB3, IgG-DXd and IgG control were administered by intraperitoneal injection. […] Compared with hRS7-DXd, hRS7-MB3 has a stronger tumor inhibitory effect. […] Non-small cell lung cancer cell line HCC827 cells purchased from ATCC were inoculated subcutaneously into mice (2×10^6 /mouse), and when the tumor volume reached 120-150 mm^3, the mice were grouped and administered. Different doses of the antibody-drug conjugate and the control drug were intraperitoneally injected into the mice, and the administration was performed only once throughout the experiment. The growth status of the mice was observed, and the changes in tumor volume of the mice were measured. […] The lung squamous cell carcinoma cell line LK-2 (CBP60105) purchased from Nanjing Cobioer Biosciences was implanted subcutaneously in the right abdomen of the mice at an inoculation amount of 3 × 10 ^6 cells/mouse. When the tumor volume reached 150-200 mm^3, the mice were divided into groups such that the average initial administration volume of each group was substantially the same. The mice were administered only once throughout the experiment and injected intraperitoneally at a dose of 10 mg/kg. IgG-MB3 or IgG-DXd was used as a negative control. It was observed that two TROP2-targeted ADCs were also able to delay tumor growth in a tumor model with relatively low TROP2 expression (FIG. 7). […] The pancreatic cancer cell line BxPC3 cells purchased from ATCC were implanted subcutaneously in the right abdomen of the mice at an inoculation amount of 3 × 10 ^6 cells/mouse. […]

B1: hTINA1-DXd: control ADC: antibody hTINA1 conjugated with Linker-DXd, average DAR 4.3; TROP2-ADC from Daiichi Sankyo (conjugate, chains of the INN, looked up)
VH: QVQLVQSGAEVKKPGASVKVSCKASGYTFTTAGMQWVRQAPGQGLEWMGWINTHSGVPKYAEDFKGRVTISADTSTSTAYLQLSSLKSEDTAVYYCARSGFGSSYWYFDVWGQGTLVTVSS
VL: DIQMTQSPSSLSASVGDRVTITCKASQDVSTAVAWYQQKPGKAPKLLIYSASYRYTGVPSRFSGSGSGTDFTLTISSLQPEDFAVYYCQQHYITPLTFGQGTKLEIK
modifications: deruxtecan (Linker-DXd), DAR 4.3
notes: control ADC: antibody hTINA1 conjugated with Linker-DXd, average DAR 4.3; TROP2-ADC from Daiichi Sankyo
**Q.** Which tumor inhibitory effect (high-dose group (3 mg/kg)) does the source give for B1 here?
**A.** comparable tumor inhibitory effects

**Q.** What about the tumor inhibitory effect (low dose (1 mg/kg), compared with IgG-MB3 and IgG-DXd) of the same molecule?
**A.** a certain degree of tumor inhibitory effect
